{"source": "paper PMC4764983", "biological_target": "histone deacetylase 1 (HDAC1), endogenous mouse (mouse (endogenous in C3H10T1/2 and STO)) (UniProt O09106)", "sequence (O09106 whole entry, the tested form may be a part)": "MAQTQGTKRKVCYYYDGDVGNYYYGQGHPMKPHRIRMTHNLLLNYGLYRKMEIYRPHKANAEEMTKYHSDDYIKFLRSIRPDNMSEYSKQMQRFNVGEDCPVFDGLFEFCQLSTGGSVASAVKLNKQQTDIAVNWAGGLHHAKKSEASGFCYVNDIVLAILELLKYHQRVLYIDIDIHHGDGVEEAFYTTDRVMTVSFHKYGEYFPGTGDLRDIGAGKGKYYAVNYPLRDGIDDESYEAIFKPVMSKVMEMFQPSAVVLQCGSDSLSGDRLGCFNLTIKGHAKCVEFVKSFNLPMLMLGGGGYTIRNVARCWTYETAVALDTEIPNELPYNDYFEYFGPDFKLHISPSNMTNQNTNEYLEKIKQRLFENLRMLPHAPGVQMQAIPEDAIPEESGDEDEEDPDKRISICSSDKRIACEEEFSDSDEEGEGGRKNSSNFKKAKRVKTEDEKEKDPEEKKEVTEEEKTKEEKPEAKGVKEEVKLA", "data": [{"substance": "V5-tagged SS18-SSX1 fusion protein", "values": [{"measurement": "fold increase in AXIN2 message (Q-PCR) after treatment with the HDAC inhibitor TSA in C3H10T1/2^SS18-SSX1-V5 cells, compared to a 6 fold increase in C3H10T1/2^pLIVc", "result": 3, "unit": "fold"}]}]}
